From paper PMC12576452

Biological target: HBV-S/preS1^16-42 antigen, untagged, produced in P. purpureum (Hepatitis B virus) (UniProt P03138)
Assay: SDS-PAGE under native, non-reducing (-DTT) and reducing (+DTT) conditions with western blot; lysates of freeze-dried algal biomass; bands of monomers, dimers and oligomers detected with anti-preS1 antibodies; disulfide-linked

“HBV-S/preS1^16-42 antigen, untagged, produced in P. purpureum (from UniProt P03138 16-42)” gave a stoichiometry N of 2.
